{
  "source": "patent US20160052996A1",
  "about": "(NEURIMMUNE, published 2016)",
  "binders": {"B1": {"name": "NI-307.24C6 (antibody, V domains shown)", "VH": "QLQLQESGPGLVKPSGTLSLICVVSGSSIRSNIWWWNWVRQSPGKGLEWIGEIYHSGSTNYSPSLKSRVTMSVDNSKNQFSLKMSSVTAADTAVYFCAINTRTSISGVLYDTFDVWGQGTMVTVSS", "VL": "EIVLTQSPATLSLSSGERATLSCRASQSVSGYLAWYQQKPGQAPRLLIYDGSNRATGIPARFSGSGSGTDFTLTISSLEPEDFAVYYCQHRSNWPMYTFGQGTKLEIK"}, "B2": {"name": "NI-307.24F3 (antibody, V domains shown)", "VH": "QVQLQESGGGVVQPGRSLRLSCAASGFSFNRYGMHWVRQAPGKGLEWLAVISNDGVNTHYADSVKGRFTISRDNSKSTLYLQASSLRVEDTAVYYCAGYYYGSGTSLFFYWGQGTLVTVSS", "VL": "EIVLTQSPDSLAVSLGERATINCKSSQTVLYSSNNQNYLAWYQQKPGQPPKLLLYWASTRESGVPDRFSGSGSGTDFTLTISSLQPEDVAVYYCQQYYTAPYTFGQGTKVEIK"}, "B3": {"name": "NI-307.57D5 (antibody, V domains shown)", "VH": "EVQLVESGGGLAQPGGSLRLSCAGSGFTLSDFAMSWVRRAPGKGLEWVSSLTPSGRNSFYSDSVKGRFTISRDNWKNTLYLEMNLLRPEDTAVYYCARPGAPKNSDSKYSYVRVDFQHWGQGTLVTVSS", "VL": "NFMLTQPHSVSESPGRTVTISCTRSSGSIANNFVQWYQHRPGSAPTTLIYEDDQRPSGVPDRFSGSVDSFSNSASLTISGLKTEDEADYFCQSYDNHNWVFGGGTTLTVL"}, "B4": {"name": "NI-307.78C3 (antibody, V domains shown)", "VH": "QVQLQESGPGLVKPSGTLSLTCTVSGGSISGRIWWSWVRQPPGKGLEWIGEIYHSGSTNYSPSLRGRVTISVDTSKQHFSLKMTSVTAADTAMYYCVRGELALGFDSWGQGTLVTVSS", "VL": "QSALTQPPSASGSPGQSVTISCTGTSSDVGGYNSVSWYQQHPRRAPKLMIYEVSKRPSGVPDRFSGSKSGNTASLTVSGLQADDEAHYYCSSYAGSNNLVFGGGTMLTVL"}, "B5": {"name": "NI-307.44F6B (antibody, V domains shown)", "VH": "EVQLVESGGSVVRPGGSLRLACEVSGLRFDDFAMSWVRQVPGKGLEWIAGIFWNSGGTLYADSVKGRFTISRDNAENSLYLQMNSLRAEDTALYRCVRGRSHAAYYGMDVWGKGTTVTVSS", "VL": "EIVLTQSPLSLPVTPGEPASISCRSSQSLLHSNGYNYLDWYLQKPGQSPQLLIYLGSNRASGVPDRFSGSGSGTDFTLTISRVEAEDVGIYYCMQALQNALAFGGGTKLEIK"}, "B6": {"name": "NI-307.43A11 (antibody, V domains shown)", "VH": "QVQLQESGPGLVKPSGTLSLTCAVTGGSISSSNWWSWVRQSPGKGLEWIGEIHHDGNLNYNPLLKSRVSMSLDRSKNQFSLKLTSVTAADTAVYYCARWDFFFDSSYYIRGFDLWGQGTMVTVSS", "VL": "ETTLTQSPGTLSLSPGERVTLSCRASQSVDRNYLAWYQQKPGQSPRLLIYSASRRATGIPDRFSGSGSGTDFTLTISRLEPEDFVVYYCQQYGGSPPITFGQGTRLEIK"}, "B7": {"name": "NI-307.5H3 (antibody, V domains shown)", "VH": "QVQLQESGPGLLKPLGTLSLICDVSGDSISSSNWWSWVRQSPRKGLEWIGEIYHSGRTNYNPSLTNRVTISVDKSKNQFSLNLNSVTAADTGVYYCARWDYYYNNDYYIRGFDIWGQGTMVTVSS", "VL": "EIVLTQSPGILSLSPGERATLSCRASQSVDSNYLAWYQQKPGQAPRLLIYSTSTRAAGVPDRFSGSGSGTDFALTISGLEPEDFAVYYCQQWGGSPPITFGQGTRLEIK"}, "B8": {"name": "NI-307.6A2 (antibody, V domains shown)", "VH": "QVQLQESGPGLVKPSETLSLTCAVSGGSVSSSYWYSWVRQLPGKGLEWIGEIFHTGDTNYNPSLESRVTISIDTSKNQLSLDVTSATAADTAVYYCARDYCTDSGCDSDALDVWGHGTMVTVSS", "VL": "QSALTQPASVSGSPGQSITISCTGTTKDVGNYNLVSWYQQHPGKAPRLVIYEVSERPSGVSNRFSGSKSGNTASLTISGLQAEDEADYHCCSYAGSGTSVFGGGTKVTVL"}, "B9": {"name": "NI-307.19F10 (antibody, V domains shown)", "VH": "EVQLVESGGGLVQPGGSVSLSCAASGFTFPVYWMHWVRQAPEKGLMWVSRISPDGTIVDYAGSVKGRFTVSRDNAKNILYLQIQRLTAEDTAVYFCTKDFDVASGFWGQGTLVTVSS", "VL": "QSALTQPPSASGSPGQSVTISCTGSKSDVGTCHFVSWYQQHPGKVPKLVIYEGNKRPSGVPDRFSASKSGNTASLTISGLQPGDEADYYCSTCAGPNNYVFGTGTKVTVL"}, "B10": {"name": "NI-307.3G4 (antibody, V domains shown)", "VH": "QVQLVQSGAELKKPGAAVKVSCQASGYNFLSYGINWVRQIPGQGLQWLGWISTYDGTMNYDQKPDNRVTVTTDTSSSTVYLELRGLRSDDTGVYYCVRDRCAGAGCSHSLGYWGQGTLVTVSS", "VL": "DIQMTQSPSALSASVGDRVTISCRASQNINTQLNWYQEKPGKAPELLIYGAFNLQSGAPSTFSGSGSGTDFTLTITSLQPEDFASYYCQQGFHAPYTFGRGTKVDIK"}, "B11": {"name": "NI-307.18E12 (antibody, V domains shown)", "VH": "QVQLQQWGAGLLKPSETLSLTCAVYGDSFSGFFWAWIRQTPGTGLEWIGEIQHGGSPTYNPSFESRLTISTDASKSQVSLKMTSVTVTDTAIYYCARCIRGKYGSGSLQLWSQGTLVTVSS", "VL": "DIQLTQSPSFLSASVGDRVTITCRASQDINYHLAWYRQKPGKAPDLLIHSAHTLHIGVSSRFSGSGSGTEFTLTIHTLQPEDFATYYCHQPKTFPPTFGGGTKVDIK"}, "B12": {"name": "NI-307.20F5 (antibody, V domains shown)", "VH": "EVQLVESGGGVVQPGTSLRLSCAASGFSFNKYGVHWVRQAPGKGLEWVANIWYDGTNPFYADFVKGRFVISRDTSKNTIYLQMNRLRAEDTAVYYCARDAFCGGDCYGGLLHGLDVWGQGTTVTVSS", "VL": "DVVMTQSPLSLPVTPGEPASISCRSSQSLLHSNGLNYLDWYLQKPGQSPQLLIYLGSNRAPGVPDRFSGSGSGTDFTLKISRVEAEDVGVYYCLQALQTPAFGQGTKVEIK"}, "B13": {"name": "NI-307.18F4A (antibody, V domains shown)", "VH": "EVQLVESGGGLVKPGGSLRLSCAASGFTFTNYYMTWVRQAPGKGLEWVSYITGGGSTTYYADSVTGRFTISRDNAKNSLYLQMSSLRVEDTAVYYCARGRGYPDNWFDPWGQGTLVTVSS", "VL": "SYVLTQPPSVSVSPGQTARITCSGDALPKQYVYWYQQKPGQAPVLMIYKDAERPSGIPDRFSGSSSGTTVTLTISGVQAEDEADYYCQSTDISGAAVVFGGGTKLTVL"}, "B14": {"name": "NI-307.98H1 (antibody, V domains shown)", "VH": "QLQLQESGPGLVKPSQTLSLTCAVSGASISSGTYYWGWIRQHPGKGLEWIGYIYPSGSTYYNPSLKSRVIISLDTSKSQFSLNLSSVTAADTAVYYCARDYYDSSGHMGGYYHYAMDVWGQGTTVTVSS", "VL": "DIQLTQSPSSLSASVGDRVTITCRASQSISSHLNWYQQKPGKVPKLLIYAASTLQSGVPSRFSGSGSGTDFTLAISSLQPADFATYYCQQSYSTPRTFGQGTKVDIK"}, "B15": {"name": "NI-307.59A7 (antibody, V domains shown)", "VH": "EVQLVESGGGLVQPGGSLRLSCAASGFTFSSYEMNWVRQAPGKGLEWVSYISSSGTNIYHADSVKGRFTISRDNAKNSLYLQMNSLRAEDTAVYYCARDGPSPRGHNYGHDYWGQGTLVTVSS", "VL": "not shown"}, "B16": {"name": "NI-307.57D4 (antibody, V domains shown)", "VH": "EVQLVESGGGLVQPGRSLRLSCAASGFTFDHYAMHWVRQVPGRGLEWVSGVTWNSGIIGYADSVKGRFTISRDNAKNSLYLQMTSLRAEDTALYYCAKGTNDFVSYGLDVWGQGTTVTVSS", "VL": "QSVLTQPPSVSGAPGQRVSISCTGTSSNLGAGFDVHWYQQIPRKAPELLIYGNSIRPSGVPDRFSGSKSGTSASLAITGLQAEDEADYYCQSYDSRLSGSVFGGGTKLTVL"}, "B17": {"name": "NI-307.72F10 (antibody, V domains shown)", "VH": "EVQLVESGGGVVQPGRSLRLSCATSGFTFDDYAMHWVRQAPGKGLEWVSGLTWSSSGVGYADSVKGRFTISRDNAKNSLYLQMNSLRAEDTALYYCAKGSGEWLRLGQDYWGQGTLVTVSS", "VL": "QSVLTQPPSVSGTPGQRVTISCTGSSSNIGAGYDVHWYQQLPGTAPKLLIYDNSNRPSGVPDRFSGSKSGTSASLAITGLQAEDEAHYYCQSFDSSLSGSVFGGGTKLAVL"}, "B18": {"name": "NI-307.105A6 (antibody, V domains shown)", "VH": "EVQLVESGGGLVQPGRSLRLSCAASGFTFDDYAMHWVRQAPGKGLEWVSGITWNSGSIGYADSVKGRFTISRDNAKNSLYLQMNSLSAEDTALYYCAKGARDYLSYGMDVWGQGTTVTVSS", "VL": "B17 VL with L4V, T13A, Y51F, D52S, S54T, N55I, H87N, F93Y, A109T"}, "B19": {"name": "NI-307.56A8 (antibody, V domains shown)", "VH": "EVQLVESGGGLVKPGGSLRLSCAASGFTFSSYRMNWVRQAPGKGLEWVSSISSSSSYIYYGDSVKGRFTISRDNAKNSLYLQMSSLRAEDTAVYYCARYAHDWNIDYWGQGTLVTVSS", "VL": "not shown"}, "B20": {"name": "NI-307.72F7 (antibody, V domains shown)", "VH": "EVQLVESGGGLVQPGGSLRLSCAASGFTFSSYEMNWVRQAPGKGLEWISYISSRGSTIHYADSVKGRFTISRDDAKNSLYLQMNSLRAEDTAIYYCARDRYDFWSGCIKGCYYGMDVWGQGSTVTVSS", "VL": "EIVLTQSPGTLSLSPGQRATLSCRASQSISSSYLAWYQQRRGQAPRLLIYGASSRATGIPDRFSGSGSGTDFTLTISRLEPEDFAVYYCQHYGTTLTFGQGTKVDIK"}},
  "note": "Substitutions are numbered along the chain they refer to.",
  "data": [
    {"target": "T1, JCV VP1 VLP (JC virus (JCV), Mad-1 strain, UniProt P03089 1-354)", "T1 construct": "also called JCV VP1 VLPs; JCV VP1 (coating with reassociation buffer)", "assay": "direct ELISA", "units": {"EC50": "nM"}, "values": [
      {"binder": "B1", "EC50": 2.84},
      {"binder": "B2", "EC50": 6.95},
      {"binder": "B3", "EC50": 57},
      {"binder": "B4", "EC50": 0.932},
      {"binder": "B5", "EC50": 0.083},
      {"binder": "B6", "EC50": 6.15},
      {"binder": "B7", "EC50": 1.16},
      {"binder": "B8", "EC50": 1.39},
      {"binder": "B9", "EC50": 3.41},
      {"binder": "B10", "EC50": 28.2}
    ]},
    {"target": "T2, BSA (Sigma-Aldrich) (bovine, UniProt P02769 25-607)", "T2 construct": "also called bovine serum albumin", "T2 sequence (P02769 25-607 limits assumed)": "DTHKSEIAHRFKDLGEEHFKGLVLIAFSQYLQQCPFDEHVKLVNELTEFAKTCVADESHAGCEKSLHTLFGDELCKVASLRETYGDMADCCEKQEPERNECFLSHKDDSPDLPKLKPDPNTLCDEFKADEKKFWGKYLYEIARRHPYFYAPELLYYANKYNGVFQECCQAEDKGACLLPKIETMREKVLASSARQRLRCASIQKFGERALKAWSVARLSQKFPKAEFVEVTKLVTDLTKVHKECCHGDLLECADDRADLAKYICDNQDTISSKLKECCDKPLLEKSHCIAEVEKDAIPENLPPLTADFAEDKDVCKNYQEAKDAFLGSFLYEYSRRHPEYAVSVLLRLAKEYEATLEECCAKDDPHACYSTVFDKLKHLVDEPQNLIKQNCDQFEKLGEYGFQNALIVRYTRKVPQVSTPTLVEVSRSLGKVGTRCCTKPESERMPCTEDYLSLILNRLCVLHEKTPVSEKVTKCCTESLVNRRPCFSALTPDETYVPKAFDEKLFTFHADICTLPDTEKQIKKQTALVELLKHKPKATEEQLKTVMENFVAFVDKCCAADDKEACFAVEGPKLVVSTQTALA", "assay": "direct ELISA", "values": [
      {"binder": "B1", "binding result": "no binding"},
      {"binder": "B3", "binding result": "no binding"},
      {"binder": "B11", "binding result": "no binding"},
      {"binder": "B4", "binding result": "no binding"},
      {"binder": "B5", "binding result": "no binding"},
      {"binder": "B6", "binding result": "no binding"},
      {"binder": "B12", "binding result": "no binding"},
      {"binder": "B7", "binding result": "no binding"},
      {"binder": "B13", "binding result": "no binding"},
      {"binder": "B8", "binding result": "no binding"},
      {"binder": "B9", "binding result": "no binding"},
      {"binder": "B10", "binding result": "no binding"}
    ]},
    {"target": "T1, JCV VP1 VLP", "assay": "direct ELISA, plate coated with antigen at 5 µg/ml in reassociation buffer (VLP); EC50 by non-linear regression (GraphPad Prism)", "units": {"EC50": "nM"}, "values": [
      {"binder": "B11", "EC50": 19.9},
      {"binder": "B13", "EC50": 55}
    ]},
    {"target": "T1, JCV VP1 VLP", "assay": "direct ELISA, plate coated with antigen at 5 µg/ml in reassociation buffer (VLP); EC50 by non-linear regression (GraphPad Prism)", "remark": "another data set of the same source", "units": {"EC50": "nM"}, "values": [
      {"binder": "B14", "EC50": 0.086},
      {"binder": "B15", "EC50": 0.066},
      {"binder": "B16", "EC50": 0.053},
      {"binder": "B17", "EC50": 0.031},
      {"binder": "B18", "EC50": 0.069},
      {"binder": "B19", "EC50": 0.041},
      {"binder": "B20", "EC50": 0.019}
    ]}
  ]
}
